{"source": "patent US12714740B2", "about": "“Compositions comprising a tweak ligand and methods of using same” (Children's Hospital Medical Center, priority 2019, dated 2026)", "origin": "cited, not measured here", "molecules": {"B1": {"name": "TWEAK: natural ligand for Fn14; 14 kDa protein, TNF superfamily member 12 (protein, UniProt O43508 94-249, looked up)", "Tumor necrosis factor ligand …": "SAPKGRKTRARRAIAAHYEVHPRPGQDGAQAGVDGTVSGWEEARINSSSPLRYNRQIGEFIVTRAGLYYLYCQVHFDEGKAVYLKLDLLVDGVLALRCLEEFSATAASSLGPQLRLCQVSGLLALRPGSSLRIRTLPWAHLKAAPFLTYFGLFQVH"}}, "biological_target": "T1, Fn14 (Homo sapiens, UniProt Q9NP84)", "T1 sequence (Q9NP84 28-129)": "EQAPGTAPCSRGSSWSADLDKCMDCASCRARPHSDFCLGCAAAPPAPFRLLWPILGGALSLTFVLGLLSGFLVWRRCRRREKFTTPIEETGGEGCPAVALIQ", "conditions": "natural ligand binding to Fn14; high affinity; read-out: interaction affinity constant (Kd)"}
{"molecule": "B1", "values": [{"measurement": "Kd", "result": "0.8 to 2.4", "unit": "nM"}]}
